The test concerns the target T1, human IL-25R (IL-17BR) on human ILCs/ILC2s from primary CRC samples (human, UniProt Q9NRM6 18-502).
T1 construct: Endogenous receptor on primary patient cells; also called interleukin-17 receptor B
T1 sequence: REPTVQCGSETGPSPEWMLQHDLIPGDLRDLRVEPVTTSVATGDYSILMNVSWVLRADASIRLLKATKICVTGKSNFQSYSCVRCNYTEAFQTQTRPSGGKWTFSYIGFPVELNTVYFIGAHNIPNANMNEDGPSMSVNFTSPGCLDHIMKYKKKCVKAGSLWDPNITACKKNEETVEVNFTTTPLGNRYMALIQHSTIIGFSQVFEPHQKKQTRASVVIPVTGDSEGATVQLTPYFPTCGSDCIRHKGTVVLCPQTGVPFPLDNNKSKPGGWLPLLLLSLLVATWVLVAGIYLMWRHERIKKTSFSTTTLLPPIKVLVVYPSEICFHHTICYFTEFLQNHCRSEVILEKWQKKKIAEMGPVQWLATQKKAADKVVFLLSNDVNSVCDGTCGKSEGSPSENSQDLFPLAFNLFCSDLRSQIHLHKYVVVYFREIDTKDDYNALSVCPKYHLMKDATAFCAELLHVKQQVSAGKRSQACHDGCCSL
As to the kind of experiment: Flow cytometry of a primary human CRC sample stained with biotinylated D9.2 plus streptavidin-BV421. Cells were pre-gated on Live CD45+, then Lin- CD4-, CD127+, and CRTH2+ for ILC2. On the procedure: Subsequently, samples were digested with 62.5 μg/mL Liberase TL (Roche) and 0.125 KU/mL DNase I (Sigma) in RPMI+2% FCS+10 mM HEPES at 37° C., shaking, for 45 minutes to collect lamina propria cells. After digestion, cells were passed through a 70 μm cell strainer and washed with PBS+2% FCS before antibody staining. Mesenteric lymph nodes were mechanically dissociated in RPMI, filtered through a 50 μm cell strainer, and washed with PBS+2% FCS before antibody staining. Fresh, surgically-resected human CRC and adjacent normal tissue were collected in sterile PBS and transported on ice before sample processing. Samples were mechanically dissociated into small pieces and digested with 100 μg/mL Liberase TM (Roche) and 0.2 KU/mL DNase I (Sigma) in RPMI, and incubated at 37° C. for 30 minutes. Subsequently, cells were filtered through a 70 μm cell strainer and washed with PBS+2% FCS before antibody staining for flow cytometry.
For surface staining, single cell suspensions were 333 blocked with anti-CD16/32 antibody (Fc block, clone 2.4G2) and Human TruStain FcX (Biolegend, 422302) for mouse and human samples in PBS+2% FCS respectively, and incubated with fluorochrome-conjugated or biotinylated antibodies on ice for 30 minutes in the dark. If necessary, samples were then incubated with fluorochrome-conjugated streptavidin on ice for a further 30 minutes.
On the technique in general: In flow cytometry, cells or beads pass a laser one at a time.

B1: anti-IL25R monoclonal antibody (clone D9.2) (antibody, V domains shown)
VH: QVQLQQPGAELVRPGASVKLSCKTSGYTFISYWMNWVKQGPEQGLEWIGRIDPYDSEIQYNQKFKDKAILTVDKSSSAAYMQLISLTSEDSAVYYCARSGGFDWFAYWGQGTLVTVSA
VL: DIQMTQSPASLSVSVGETVTITCRASENINSNLAWYQQKKGKSPQLLVYDVTNLADGVPSRFSGSGSGTQYSLKINSLQSEDFGSYYCQHFWRPPYTFGGGTNLEIK
notes: Murine antibody; also called IL17BR (D9.2, AF647); IL17BR (D9.2, biotin)
As for B1, the binding result is listed as “binds”.

The record behind these values is US20240343794A1 (UNITED KINGDOM RESEARCH AND INNOVATION, published 2024).
